According to patent publication US20060029995A1, “Novel class of metacaspases” (Vlaams Interuniversitair Instituut Voor Biotechnologie VZW, priority 2003, published 2006):
One block for each molecule: values may come before it. *: point of attachment. AMC = Cc1cc(=O)oc2cc(N*)ccc12; Cbz = O=C(OCc1ccccc1)*; Boc = CC(C)(C)OC(=O)*

Tests used:
[1] = test system: Lysates from 293T cells overexpressing metacaspases; assay: Caspase substrates incubated with lysates from 293T cells overexpressing metacaspases; assay type: biochemical, Arabidopsis thaliana
Protocol: For mammalian overexpression, cDNAs for metacaspases were cloned into pDEST26 (Invitrogen, Gaithersburg, Md., USA), resulting in an N-terminal HIS6-fusion under transcriptional control of the constitutive CMV promoter. Human embryonic kidney cells 293T were cultured in DMEM supplemented with 2 mM L-glutamine, 10% fetal calf serum, 106 U/i streptomycin, […] penicillin and 0.4 mM sodium pyruvate. 5×10^5 cells (6 well plate) were seeded and next day transfected using the calcium phosphate method as described previously (Van de Craen et al., 1998).
Lysates from 293T cells overexpressing metacaspases were also incubated with different synthetic fluorigenic substrates for caspases, namely acetyl-Asp-Glu-Val-Asp-aminomethylcoumarin (Ac-DEVD-amc), acetyl-Ile-Glu-Thr-Asp-aminomethylcoumarin (Ac-IETD-amc), Acetyl-Leu-Glys-His-Asp-aminomethylcoumarin (Ac-LEHD-amc), acetyl-Trp-Glu-His-Asp-aminomethylcoumarin (Ac-WEHD-amc), Acetyl-Tyr-Val-Ala-Asp-aminomethylcoumarin (Ac-YVAD-amc) and benzyloxycarbonyl-Val-Ala-Asp-aminomethylcoumarin (zVAD-amc).

[2] = biological target: T1, metacaspase 3 (Arabidopsis thaliana, UniProt Q9FMG1); assay: Cleavage of fluorescent artificial substrates by purified metacaspase 3; assay type: biochemical; details: assay buffers of pHs ranging from 4.5 to 9.0 (MES 50 mM)
T1 construct: made in house; host or cells: bacterial production, pDEST17 (E. coli by the general method)
T1 sequence (Q9FMG1 1-362 R151K/L157V/V158I/Q177E): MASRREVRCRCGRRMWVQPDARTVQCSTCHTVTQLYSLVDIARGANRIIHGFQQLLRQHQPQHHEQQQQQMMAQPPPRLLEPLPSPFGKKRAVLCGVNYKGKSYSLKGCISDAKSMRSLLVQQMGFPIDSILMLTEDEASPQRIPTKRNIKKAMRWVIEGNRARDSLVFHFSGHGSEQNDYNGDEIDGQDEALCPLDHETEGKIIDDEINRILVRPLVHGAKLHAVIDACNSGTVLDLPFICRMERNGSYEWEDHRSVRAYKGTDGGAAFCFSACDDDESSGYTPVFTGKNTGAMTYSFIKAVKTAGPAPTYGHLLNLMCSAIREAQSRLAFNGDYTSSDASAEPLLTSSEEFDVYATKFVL
Text: (§1) For generation of the prodomain deletion mutant of Arabidopsis thaliana metacaspase 3 (MC3ΔN), residues 1 to 91 were replaced by a methionine residue by PCR, using 5′-[…]-3′ (SEQ ID NO:43) as the forward primer and 5′-[…]-3′ (SEQ ID NO:17) as the reverse primer. 5′ extensions used for Gateway™ (Invitrogen) cloning were 5′-[…]-3′ (SEQ ID NO:44) for forward primers and 5′-[…]-3′ (SEQ ID NO:45) for reverse primers. For bacterial production, the cDNA's were cloned into the bacterial expression vector pDEST17™ (Invitrogen), resulting in the amino-terminal translational addition of the following HIS6 tag-containing sequence: […] (SEQ ID NO:37).
(§2) Activity of purified metacaspase 3 was tested with different fluorescent substrates in assay buffers of pHs ranging from 4.5 to 9.0 (MES 50 mM). The substrates tested were: Ac-DEVD-AMC, Z-VAD-AMC, Boc-GRR-AMC, Boc-GKR-AMC, Z-FR-AMC and H-AFK-AMC. Only Z-FR-AMC was cut by metacaspase 3.

[3] = biological target: T2, Atmc9 (Arabidopsis thaliana, UniProt Q9FYE1); assay: kcat/Km of artificial substrates of Atmc9; assay type: biochemical; details: summary of Table 1
T2 construct: it indeed consists of amino acids 184 to 325 (calculated mass 15427 Da); made in house; host or cells: E. coli BL21(DE3), pDEST17, Ni-NTA purified
T2 sequence (Q9FYE1 1-183 limits assumed): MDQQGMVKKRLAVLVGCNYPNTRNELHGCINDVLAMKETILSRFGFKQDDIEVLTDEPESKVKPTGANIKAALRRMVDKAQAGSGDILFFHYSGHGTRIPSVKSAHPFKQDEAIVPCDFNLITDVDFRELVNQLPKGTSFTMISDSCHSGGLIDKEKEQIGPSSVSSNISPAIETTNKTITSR
T2 sequence (Q9FYE1 184-325 limits assumed): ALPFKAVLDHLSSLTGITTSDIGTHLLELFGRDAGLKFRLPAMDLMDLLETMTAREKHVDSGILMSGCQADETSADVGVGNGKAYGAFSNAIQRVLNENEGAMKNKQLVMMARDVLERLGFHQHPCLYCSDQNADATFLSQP
Protocol: The activity assay buffer used was composed of 50 mM MES pH 5.3, 10% (w/v) sucrose, 0.1% (w/v) 3-[(3-cholamidopropyl)dimethylammonio]-1-propanesulfonate [CHAPS], 10 mM DTT.
Release of free AMC was determined in a time course using a FLUOstar Optima fluorescence plate reader (BMB Lab Technologies, Offenburg, Del.). After total hydrolysis of the substrates, kcatlKm was calculated using the following formula: kcat/Km=kobsIEt, where kobs is determined as the decrease per second of the natural logarithm of substrate left, and Et is the concentration of enzyme active sites in the reaction.

[4] = Proteolytic activity of Atmc9 against Boc-GKR-AMC at different pH; assay type: biochemical
Protocol: Assays were performed in 150 μl with 400 ng of purified Atmc9 and 50 μM substrate in an optimized metacaspase 9 assay buffer (50 mM MES pH 5.3, 10% (w/v) sucrose, 0.1% (w/v) 3-[(3-cholamidopropyl)dimethylammonio]-1-propanesulfonate [CHAPS], 10 mM DTT). Time-dependent release of free amido-4-methylcoumarin (AMC) was measured on a Cytofluor 4000 fluorescence microplate reader (PerSeptive Biosystems, Farmingham, Md., USA).
To further characterize Atmc9 biochemically, the purified protein and its cysteine mutant were tested for their ability to cleave the synthetic fluorogenic oligopeptide substrate t-butyloxycarbonyl-GKR-7-amido-4-methylcoumarin (Boc-GKR-AMC) at different pH.

[5] = Activity of full length metacaspase 3 and prodomain deletion mutants in function of the pH, Z-FR-AMC as substrate; assay type: biochemical; design: unit not given here
Text: as §1, §2
A comparison was made between full length (MC3) and a prodomain deletion mutant of wild-type metacaspase 3 (MC3AN) or the C/A mutant (MC3ANC/A). Activity was significant only after addition of the kosmotrope sodium citrate (Na citr., 1 M), in absence of this agent the proteins were not active.
Table 3: Activit y of full length metacaspase 3, and the prodomain deletion mutant in function of the pH, using Z-FR-AMC as substrate. “No enz” was incubated at pH8, without addition of metacaspase.

[6] = biological target: T3, t-butyloxycarbonyl-Gly-Arg-Arg-7-amido-4-methylcoumarin
T3 chain: GRR

[7] = biological target: T4, benzyloxycarbonyl-Phe-Arg-AMC
T4 chain: FR

[8] = biological target: T5, benzyloxycarbonyl-Val-Ala-Asp-aminomethylcoumarin
T5 chain: VAD

[9] = biological target: T6, t-butyloxycarbonyl-Gly-Lys-Arg-7-amido-4-methylcoumarin
T6 chain: GKR

[10] = biological target: T7, H-Ala-Phe-Lys-7-amido-4-methylcoumarin
T7 chain: AFK

[11] = biological target: T8, acetyl-Asp-Glu-Val-Asp-aminomethylcoumarin
T8 chain: DEVD

Molecule: Acetyl-Leu-Glys-His-Asp-aminomethylcoumarin [Ac-LEHD-amc]
activity of lysates on synthetic fluorigenic caspase substrates [1]: no significant increase in activity

Molecule: Acetyl-Tyr-Val-Ala-Asp-aminomethylcoumarin (Ac-YVAD-{AMC}; SMILES CC(=O)N[C@@H](Cc1ccc(O)cc1)C(=O)N[C@H](C(=O)N[C@@H](C)C(=O)N[C@@H](CC(=O)O)C(=O)Nc1ccc2c(C)cc(=O)oc2c1)C(C)C) [Ac-YVAD-amc]
activity of lysates on synthetic fluorigenic caspase substrates [1]: no significant increase in activity

Molecule: H-Ala-Phe-Lys-7-amido-4-methylcoumarin (H-Ala-Phe-Lys-{AMC}; SMILES Cc1cc(=O)oc2cc(NC(=O)[C@H](CCCCN)NC(=O)[C@H](Cc3ccccc3)NC(=O)[C@H](C)N)ccc12) [H-AFK-AMC]
cleavage by metacaspase 3 [2]: No activity was detected | quality as substrate for Atmc9 [3]: less efficiently cleaved

Molecule: acetyl-Asp-Glu-Val-Asp-aminomethylcoumarin [Ac-DEVD-AMC]
cleavage by metacaspase 3 [2]: No activity was detected | activity of lysates on synthetic fluorigenic caspase substrates [1]: no significant increase in activity

Molecule: acetyl-Ile-Glu-Thr-Asp-aminomethylcoumarin (Ac-IETD-{AMC}; SMILES CC[C@H](C)[C@H](NC(C)=O)C(=O)N[C@@H](CCC(=O)O)C(=O)N[C@H](C(=O)N[C@@H](CC(=O)O)C(=O)Nc1ccc2c(C)cc(=O)oc2c1)[C@@H](C)O) [Ac-IETD-amc]
activity of lysates on synthetic fluorigenic caspase substrates [1]: no significant increase in activity

Molecule: acetyl-Trp-Glu-His-Asp-aminomethylcoumarin (Ac-WEHD-{AMC}; SMILES CC(=O)N[C@@H](Cc1c[nH]c2ccccc12)C(=O)N[C@@H](CCC(=O)O)C(=O)N[C@@H](Cc1c[nH]cn1)C(=O)N[C@@H](CC(=O)O)C(=O)Nc1ccc2c(C)cc(=O)oc2c1) [Ac-WEHD-amc]
activity of lysates on synthetic fluorigenic caspase substrates [1]: no significant increase in activity

Molecule: benzyloxycarbonyl-Val-Ala-Asp-aminomethylcoumarin (Cbz-Val-Ala-Asp-{AMC}) [Z-VAD-AMC]
cleavage by metacaspase 3 [2]: No activity was detected | activity of lysates on synthetic fluorigenic caspase substrates [1]: no significant increase in activity

Molecule: t-butyloxycarbonyl-Gly-Arg-Arg-7-amido-4-methylcoumarin (Boc-Gly-Arg-Arg-{AMC}) [Boc-GRR-AMC]
cleavage by metacaspase 3 [2]: No activity was detected | quality as substrate for Atmc9 [3]: good substrates

Molecule: t-butyloxycarbonyl-Gly-Lys-Arg-7-amido-4-methylcoumarin (Boc-Gly-Lys-Arg-{AMC}; SMILES Cc1cc(=O)oc2cc(NC(=O)[C@H](CCCNC(=N)N)NC(=O)[C@H](CCCCN)NC(=O)CNC(=O)OC(C)(C)C)ccc12) [Boc-GKR-AMC]
cleavage by metacaspase 3 [2]: No activity was detected | quality as substrate for Atmc9 [3]: somewhat less good substrate

B1: Atmc9: purified recombinant HIS-tagged Arabidopsis thaliana metacaspase 9, type II (protein, listed as Arabidopsis thaliana)
chain: HHHHHLESTSLYKKAGSTMDQQGMVKKRLAVLVGCNYPNTRNELHGCINDVLAMKETILSRFGFKQDDIEVLTDEPESKVKPTGANIKAALRRMVDKAQAGSGDILFFHYSGHGTRIPSVKSAHPFKQDEAIVPCDFNLITDVDFRELVNQLPKGTSFTMISDSCHSGGLIDKEKEQIGPSSVSSNISPAIETTNKTITSRALPFKAVLDHLSSLTGITTSDIGTHLLELFGRDAGLKFRLPAMDLMDLLETMTAREKHVDSGILMSGCQADETSADVGVGNGKAYGAFSNAIQRVLNENEGAMKNKQLVMMARDVLERLGFHQHPCLYCSDQNADATFLSQP
modifications: N-terminal His6 tag with linker; Atmc9
notes: purified recombinant HIS-tagged Arabidopsis thaliana metacaspase 9, type II
activity at the physiological pH of the cytoplasm ([4]; pH 7.0-7.5): completely abolished | GKR-ase activity ([4]; purified protein, Boc-GKR-AMC at different pH, FIG. 7): clearly has GKR-ase activity

Activity ([5]; pH 4.5, with sodium citrate (1 M)): 13.37 | Activity ([5]; pH 5, with sodium citrate (1 M)): 8.05 | Activity ([5]; pH 5.5, with sodium citrate (1 M)): 5.48 | Activity ([5]; pH 6, with sodium citrate (1 M)): 5.64 | Activity ([5]; pH 6.5, with sodium citrate (1 M)): 29.58 | Activity ([5]; pH 7, with sodium citrate (1 M)): 36.63 | Activity ([5]; pH 7.5, with sodium citrate (1 M)): 41.61 | Activity ([5]; pH 8, with sodium citrate (1 M)): 26.11 | Activity ([5]; pH 8.5, with sodium citrate (1 M)): 17.93 | Activity ([5]; pH 9, with sodium citrate (1 M)): −2.57
B2: N-terminally HIS6-tagged Atmc3 (bacterially produced) (protein)
chain: MSYYHHHHHHLESTSLYKKAGSTMASRREVRCRCGRRMWVQPDARTVQCSTCHTVTQLYSLVDIARGANRIIHGFQQLLRQHQPQHHEQQQQQMMAQPPPRLLEPLPSPFGKKRAVLCGVNYKGKSYSLKGCISDAKSMRSLLVQQMGFPIDSILMLTEDEASPQRIPTKRNIRKAMRWLVEGNRARDSLVFHFSGHGSQQNDYNGDEIDGQDEALCPLDHETEGKIIDDEINRILVRPLVHGAKLHAVIDACNSGTVLDLPFICRMERNGSYEWEDHRSVRAYKGTDGGAAFCFSACDDDESSGYTPVFTGKNTGAMTYSFIKAVKTAGPAPTYGHLLNLMCSAIREAQSRLAFNGDYTSSDASAEPLLTSSEEFDVYATKFVL
cleavage of fluorescent substrate, pH 4.5 to 9.0 [6]: No activity was detected using the other substrates. | cleavage of fluorescent substrate, pH 4.5 to 9.0 [7]: Only Z-FR-AMC was cut by metacaspase 3. | cleavage of fluorescent substrate, pH 4.5 to 9.0 [8]: No activity was detected using the other substrates. | cleavage of fluorescent substrate, pH 4.5 to 9.0 [9]: No activity was detected using the other substrates. | cleavage of fluorescent substrate, pH 4.5 to 9.0 [10]: No activity was detected using the other substrates. | cleavage of fluorescent substrate, pH 4.5 to 9.0 [11]: No activity was detected using the other substrates.
